Reference: patent US20220054706A1 (KING ABDULLAH UNIVERSITY OF SCIENCE AND TECHNOLOGY, published 2022)

Molecular target: the molecule itself
Assay: 2D NMR (NOESY/TOCSY) of the self-assembling peptide in 90% H2O-10% D2O
Description: 2D NMR of peptide solution was carried out to study the spatial structure during the assembly process. These NMR spectra were recorded on a Bruker Avance III 600 MHz equipped with a 5 mm Z-gradient SmartProbe BB(F)-H-D (BrukerBioSpin™, Rheinstetten, Germany). The samples were prepared from 10 mg of peptide in a mixture of 900 μL of 1 mM 2,2-Dimethyl-2-silapentane-5-sulfonate (DSS) and 100 μL of D₂O. ¹H-NMR was recorded by collecting 32 scans using excitation sculping with gradients pulse program (zgesgp) for water suppression.¹⁰⁹ COSY and TOCSY were then conducted to see the correlation between hydrogens that were coupled to each other. COSY was performed using a time domain of 4096 (F2)×512 (F1), 16 number of scans, a pulse program of cosydfgpph19, and 3-9-19 pulse sequence for water suppression.¹¹⁰⁻¹¹² For TOCSY, the parameters with time domain of 8192 (F2)×512 (F1), 16 number of scans, a pulse program of dipsi2gpph19, and 3-9-19 pulse sequence for water suppression were set. Finally, the NOESY acquisition was carried out with a time-domain size of 2048 (F2)×512 (F1), 32 scan numbers, a pulse program of noesyesgpph19, a mixing time of 400 ms, and water suppression using 3-9-19 pulse sequence. Broker Topspin 3.5pI7 software was used in all NMR experiments for both data collection and spectral analyses.

B1: Ac-Ile-Val-Phe-Lys-NH2 (IVFK) (peptide)
peptide: Ac-IVFK-NH2
notes: Synthetic self-assembling tetrapeptide; In the NMR experiment it stood at 10 mg in 900 uL of 1 mM DSS plus 100 uL D2O; also called aromatic IVFK
binding result: binds
